Results: publication PMC9505826, “A Peptide Inhibitor of the Human Cytomegalovirus Core Nuclear Egress Complex” (Pharmaceuticals, 2022)

Molecular target: recombinant HCMV pUL50 (His-tagged) (human cytomegalovirus (HCMV)) (UniProt P16791)
Assay: ELISA; competition: pUL53 (1 µg/mL) coated on Immulon plates; peptide in serial dilutions from 10 µM together with His-tagged pUL50 (0.78 µg/mL) for 2.5 h; detection with anti-His-HRP; 0.1 M phosphate buffer pH 7.2, 0.1% BSA, 0.01% Tween 20

Work on “NLS-CPP (acetylated; pUL53 NLS 18-27 joined to HIV-1 Tat 47-59) (peptide)” yielded an IC50 greater than 10 µM.
